Data on two molecules can be found in patent US20130295090A1.

The target in the assay is JEV strain SA14-14-2 envelope (E) protein on virions (Japanese encephalitis virus strain SA14-14-2), P0DOH7. The assay can be described thus: ELISA on JEV virions captured with HMAF, half-maximal binding, MAb. Particulars: remark: other sources report otherwise.

B1: humanized MAb A3 (antibody)
VH: EVQLLESGAEVKKPGSSVRISCKVSGTPYSSYVMNWVRQAPGQGLEWMGVFVPSLDRALYAQNFQGRLSITADTTTTYMELTSLKFEDTAVYYCATDFSVGWLRPLDRWGQGTLVTVSSASTKGPSVFPLAPSSKSTSGGTAALGCLVKDYFPEPVTVSWNSGALTSGVHTFPAVLQSSGLYSLSSVVTVPSSSLGTQTYICNVDHKPSNTKVDKKVEPKSCDKTHTCPPCPAPPVEGGPSVFLFPPKPKDTLMISRTPEVTCVVVDVSHEDPEVKFNWYVDGVEVHNAKTKPREEQYNSTYRVVSVLTVLHQDWLNGKEYKCKVSNKALPAPIEKTISKAKGQPREPQVYTLPPSRDELTKNQVSLTCLVKGFYPSDIAVEWESNGQPENNYKTTPPVLDSDGSFFLYSKLTVDKSRWQQGNVFSCSVMHEALHNHYTQKSLSLSPGK
VL: not shown
B1 came in with a Kd of 0.15 nM. This counts as sub-nanomolar.

B2: humanized MAb B2 (antibody)
VH: EVQLLEQSGSEVKKPGASVKVSCKASGYPFTDYAMSWVRQAPGQGLEYMGWIFTNSGNPTYAPGFAGRFVFSLDISVNTAYLHIDSLKPEDTAVYYCARGIVTPAASGDYFDSWGQGTLVTVSSASTKGPSVFPLAPSSKSTSGGTAALGCLVKDYFPEPVTVSWNSGALTSGVHTFPAVLQSSGLYSLSSVVTVPSSSLGTQTYICNVDHKPSNTKVDKKVEPKSCDKTHTCPPCPAPPVEGGPSVFLFPPKPKDTLMISRTPEVTCVVVDVSHEDPEVKFNWYVDGVEVHNAKTKPREEQYNSTYRVVSVLTVLHQDWLNGKEYKCKVSNKALPAPIEKTISKAKGQPREPQVYTLPPSRDELTKNQVSLTCLVKGFYPSDIAVEWESNGQPENNYKTTPPVLDSDGSFFLYSKLTVDKSRWQQGNVFSCSVMHEALHNHYTQKSLSLSPGK
VL: ELVLTQSPSSLSASIGDRVTITCRASQHISSWLAWYQQKPGKAPKPLIYAASSLKSGVPSRFSGSGSGTDFTLTISGLQPEDFATYYCQQYENSPVTFGGGTKVEIKRTVAAPSVFIFPPSDEQLKSGTASVVCLLNNFYPREAKVQWKVDNALQSGNSQESVTEQDSKDNTYSLSSTLTLSKADYEKHKVYACEVTHQGLSSPVTKSFN
Molecule B2 returned a Kd of 0.08 nM.
